Changes are numbered by the printed parent chain.
B1: WT: wild-type human MAO B enzyme expressed from cDNA in pSVK3 in COS-7 cells (protein, UniProt P27338 2-520, looked up)
Amine oxidase …: SNKCDVVVVGGGISGMAAAKLLHDSGLNVVVLEARDRVGGRTYTLRNQKVKYVDLGGSYVGPTQNRILRLAKELGLETYKVNEVERLIHHVKGKSYPFRGPFPPVWNPITYLDHNNFWRTMDDMGREIPSDAPWKAPLAEEWDNMTMKELLDKLCWTESAKQLATLFVNLCVTAETHEVSALWFLWYVKQCGGTTRIISTTNGGQERKFVGGSGQVSERIMDLLGDRVKLERPVIYIDQTRENVLVETLNHEMYEAKYVISAIPPTLGMKIHFNPPLPMMRNQMITRVPLGSVIKCIVYYKEPFWRKKDYCGTMIIDGEEAPVAYTLDDTKPEGNYAAIMGFILAHKARKLARLTKEERLKKLCELYAKVLGSLEALEPVHYEEKNWCEEQYSGGCYTTYFPPGILTQYGRVLRQPVDRIYFAGTETATHWSGYMEGAVEAGERAAREILHAMGKIPEDEIWQSEPESVDVPAQPITTTFLERHLPSVPGLLRLIGLTTIFSATALGFLAHKRGLLVRV
B2: F423 A: human MAO B mutant, Phe residue at position 423 changed to Ala (protein, UniProt P27338 2-520, looked up, variant F423A)
Amine oxidase …: B1 Amine oxidase … with F422A
B3: E427 Q: human MAO B mutant, Glu427 changed to Gln (protein, UniProt P27338 2-520, looked up, variant E427Q)
Amine oxidase …: B1 Amine oxidase … with E426Q
B4: T428 A: human MAO B mutant, Thr428 changed to Ala (protein, UniProt P27338 2-520, looked up, variant T428A)
Amine oxidase …: B1 Amine oxidase … with T427A
B5: T428 S: human MAO B mutant, Thr428 changed to Ser (protein, UniProt P27338 2-520, looked up, variant T428S)
Amine oxidase …: B1 Amine oxidase … with T427S

Experiments:
MAO B [1] = test: pH profiles of wild-type and mutant MAO B enzymatic activity with [14C]benzylamine; format: biochemical, human; settings: pH 6.0 to 9.0, 500 μM benzylamine
Procedure: (§1) Aliquots (20 μl) of transfected COS-7 cell homogenates were incubated for 10 min at 37° C. in the presence of 500 μM (^14C)benzylamine (2.5 mCi/mmol) in 50 mM sodium phosphate buffer, pH 6.0, 6.5, 7.0, 7.5, 8.0, 8.5 or 9.0 (200 μl total volume). Reactions were stopped by addition of 25 μl of 6 N HCl. Parallel assays were carried out with untransfected COS-7 homogenates as a control. Samples were processed as previously described (28) and the derived specific activity values (nmol/min·mg protein) were divided by wild-type or mutant MAO B concentration, determined for each experiment, to obtain enzymatic activity values (nmol/min·m g MAO B). Enzymatic activities were determined in duplicate for three separate experiments.
(§2) To examine the possibility that the mutation effects a proton-dependent step in the reaction, the enzymatic activity of the mutant and wild-type MAO B enzymes was determined at different pH values from 6.0 to 9.0 (FIG. 4).

MAO B [2] = test: Kinetic analysis of wild-type and mutant MAO B with [14C]benzylamine substrate (transfected COS-7 cell homogenates); format: biochemical, human; settings: for Kcat / Km / Vmax: pH 7.5, 37° C., apparent, mean + S.E.M., n=3; for activity relative to wild-type: activity too low to determine kinetic parameters; for Kcat reduced by: versus wild-type
Procedure: (§3) The wild-type and mutant MAO B enzymes were expressed in mammalian COS-7 cells, and the enzymatic properties of the native enzyme and its mutant enzymes were determined and compared. Wild-type and mutant MAO B cDNAs were transiently transfected into COS-7 cells by electroporation. Cells were harvested during late log phase growth and resuspended to a concentration of 3.125×10^6 cells/ml in DMEM supplemented with 10% fetal bovine serum (FBS). Fifteen μg of normal or mutant cDNA were added to 0.8 ml (2.5×10^6 cells) of cell suspension. Electroporation was carried out in a Bio-Rad Gene Pulser with a setting of 0.25 kV and 500 μF. Cells were resuspended in 15 ml of DMEM/FBS and incubated at 37° C. with 5% CO2 for 48 h.
(§4) Aliquots (20 μl) of transfected COS-7 cell homogenates were incubated for 10 min at 37° C. in the presence of various concentrations of [^14C]PEA (20 mCi/mmol) or [^14C]benzylamine (10 mCi/mmol) in 50 mM sodium phosphate buffer, pH 7.5 (200 μl total volume). Substrate concentrations ranged from 0.25-2.5 times the Km value (determined in pilot experiments) to yield 10 equally-spaced reciprocal increments. Parallel assays were carried out with untransfected COS-7 cell lysates as a control. Reactions were stopped by addition of 25 μl of 6 N HCl and the deaminated products were extracted by vortexing for 30 seconds with 500 μl of toluene or toluene:ethyl acetate (1:1) for benzylamine or PEA, respectively. Samples were processed as described previously (28). Apparent Km and Vmax values were determined by linear regression analysis of Lineweaver-Burk plots. Kcat values were calculated from the Vmax values divided by the concentration of wild-type or mutant MAO B determined in each experiment. Expression levels of wild-type or mutant MAO B were determined in triplicate for six separate experiments as follows: wild-type=11.1+2.07; F423A=9.30+1.89; E427Q=10.3+1.29; T428A=10.2+2.07; T428S=10.2+1.53 pmol MAO B/mg protein. Data are given as means +S.E.M. pmol/mg of protein determined using a subunit molecular weight of 58,800.

MAO B [3] = test: Kinetic analysis of wild-type and mutant MAO B with [14C]PEA substrate (transfected COS-7 cell homogenates); format: biochemical, human; settings: PEA substrate; for Kcat / Km / Vmax: pH 7.5, 37° C., apparent, mean + S.E.M., n=3; for activity relative to wild-type: activity too low to determine kinetic parameters
Procedure: as §3, §4

COS-7 cells = test: Expression levels of wild-type or mutant MAO B in transfected COS-7 cells; settings: transiently transfected COS-7 cells, triplicate, six experiments, mean + S.E.M., subunit molecular weight 58,800
Procedure: as §3, §4

MAO B [4] = biological target: T1, MAO B (Homo sapiens, UniProt P27338, F423A); test: Kinetic analysis of wild-type and mutant MAO B with [14C]PEA substrate (transfected COS-7 cell homogenates); format: biochemical; settings: substrate not stated in the sentence (Tables 1 and 2: PEA and benzylamine)
T1 construct: expressed in transfected cells; host or cells: COS-7
T1 sequence (P27338 2-520 F423A): B1 Amine oxidase … with F422A
Procedure: as §3, §4

MAO B [5] = biological target: T2, MAO B (Homo sapiens, UniProt P27338, E427Q); test: pH profiles of wild-type and mutant MAO B enzymatic activity with [14C]benzylamine; format: biochemical; settings: pH 6.0 to 9.0, 500 μM benzylamine
T2 construct: expressed in transfected cells; host or cells: COS-7
T2 sequence (P27338 2-520 E427Q): B1 Amine oxidase … with E426Q
Procedure: as §1, §2

Row | Molecule | pH profile of enzymatic activity (MAO B [1]) | Kcat (MAO B [2]) | Km (MAO B [2]) [µM] | Vmax (MAO B [2]) | Kcat (MAO B [3]) | Km (MAO B [3]) [µM] | Vmax (MAO B [3]) | Expression level (COS-7 cells) | activity relative to wild-type (MAO B [2]) | decrease in activity compared to the wild-type enzyme (MAO B [4]) [% reduction] | activity relative to wild-type (MAO B [3]) | activity relative to wild-type (MAO B [5]) | activity relative to wild-type (MAO B [2]; listed as E427Q) [% wt] | activity relative to wild-type (MAO B [3]; listed as E427Q) [% wt] | Km compared with wild-type (MAO B [2]) | Kcat reduced by (MAO B [2]) [%] | Kcat relative to wild-type (reduction) (MAO B [3])
1 | B1 | characteristic increase in activity with increasing pH | 83.0 + 14.4 min^−1 | 19.3 | 0.879 + 0.19 nmol/min · mg protein | 29.8 + 5.0 min^−1 | 3.38 | 0.325 + 0.008 nmol/min · mg protein | 11.1+2.07 pmol MAO B/mg protein | – | – | – | – | – | – | – | – | –
2 | B2 | fairly similar to wild-type MAO B | – | – | – | – | – | – | 9.30+1.89 pmol MAO B/mg protein | (<5% wt) | > 95 | (<5% wt) | – | – | – | – | – | –
3 | B3 | essentially independent of pH | – | – | – | – | – | – | 10.3+1.29 pmol MAO B/mg protein | (<5% wt) | – | (<5% wt) | < 5 % of wild-type | < 5 | < 5 | – | – | –
4 | B4 | – | 46.2 + 19.1 min^−1 | 18.6 | 0.374 + 0.06 nmol/min · mg protein | 14.3 + 2.6 min^−1 | 11.1 | 0.161 + 0.039 nmol/min · mg protein | 10.2+2.07 pmol MAO B/mg protein | – | – | – | – | – | – | approximately equal to wild-type | 44 | ~50 % of wild-type
5 | B5 | – | 27.2 + 5.8 min^−1 | 5.4 | 0.236 + 0.05 nmol/min · mg protein | 14.5 + 2.0 min^−1 | 11.6 | 0.162 + 0.22 nmol/min · mg protein | 10.2+1.53 pmol MAO B/mg protein | – | – | – | – | – | – | approximately equal to wild-type | 67 | ~50 % of wild-type
